Source: publication PMC11638070

Molecular target: mitochondrial heat shock protein 60, wild type (mtHsp60) (human), P10809
Assay: SEC; analytical SEC of each protein alone (mtHsp60 samples 17 µM monomer); Superdex 200 Increase 3.2/300, room temperature, 20 mM HEPES pH 7.5, 100 mM KCl, 10 mM MgCl2
Settings: remark: other sources report otherwise

B1: mitochondrial heat shock protein 60, wild type (mtHsp60), P10809 27-573 (natural protein)
chain: AKDVKFGADARALMLQGVDLLADAVAVTMGPKGRTVIIEQSWGSPKVTKDGVTVAKSIDLKDKYKNIGAKLVQDVANNTNEEAGDGTTTATVLARSIAKEGFEKISKGANPVEIRRGVMLAVDAVIAELKKQSKPVTTPEEIAQVATISANGDKEIGNIISDAMKKVGRKGVITVKDGKTLNDELEIIEGMKFDRGYISPYFINTSKGQKCEFQDAYVLLSEKKISSIQSIVPALEIANAHRKPLVIIAEDVDGEALSTLVLNRLKVGLQVVAVKAPGFGDNRKNQLKDMAIATGGAVFGEEGLTLNLEDVQPHDLGKVGEVIVTKDDAMLLKGKGDKAQIEKRIQEIIEQLDVTTSEYEKEKLNERLAKLSDGVAVLKVGGTSDVEVNEKKDRVTDALNATRAAVEEGIVLGGGCALLRCIPALDSLTPANEDQKIGIEIIKRTLKIPAMTIAKNAGVEGSLIVEKIMQSSSEVGYDAMAGDFVNMVEKGIIDPTKVVRTALLDAAGVASLLTTAEVVVTEIPKEEKDPGMGAMGGMGGGMGGGMF
stoichiometry N: 7
